From US20260139049A1 (PEDIATRIC IMMUNITY AND HEALTHCARE GUANGZHOU BIOTECHNOLOGY, published 2026)
Residue numbers refer to the chain shown, from its start. Like-named read-outs stand apart in the source and are kept apart here. Values belong to the binder of their own block, whether it stands above or below them.

Tests used:
human CLDN6 [1] = molecular target: T1, human CLDN6 (human, UniProt P56747 1-220); test: FACS on HEK293T-CLDN6 cells
T1 construct: whole, on cells; four-transmembrane protein; also called claudin-6; HEK293T-CLDN6
T1 sequence (looked up): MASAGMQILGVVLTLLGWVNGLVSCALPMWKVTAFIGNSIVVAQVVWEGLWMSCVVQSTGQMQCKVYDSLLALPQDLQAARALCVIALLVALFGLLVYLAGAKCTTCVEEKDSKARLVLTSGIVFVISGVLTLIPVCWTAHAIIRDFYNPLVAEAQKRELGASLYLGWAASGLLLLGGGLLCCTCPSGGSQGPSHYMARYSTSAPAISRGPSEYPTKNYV
Procedure: (§1) To detect a binding capacity of a chimeric or humanized antibody to CLDN6, a CLDN6-expressing cell line HEK293T-CLDN6 and a CLDN6-negative control cell line HEK293T were washed three times with PBS. 1×10⁵ test cells and 50 μL of an antibody solution to be tested were added to a 96-well plate, and incubated at 4° C. for 1 h. The cells were then washed three times with PBS. […] Finally, cells were washed three times with PBS, and signals were read using FACS.

human CLDN6 [2] = molecular target: T1, human CLDN6; test: FACS on HEK293T-CLDN6 cells; remark: listed apart in the source
Procedure: as §1
(§2) An EC50 value (a concentration of an antibody that binds to half of binding sites at equilibrium) is calculated through nonlinear regression.

[3] = molecular target: T2, monkey CLDN6 (Cyno CLDN6) (monkey (Cyno)); test: FACS on CHO-K1-Cyno CLDN6 cells
T2 construct: whole, on cells; also called CHO-K1-Cyno CLDN6

mouse CLDN6 [4] = molecular target: T3, mouse CLDN6 (mouse, UniProt Q9Z262 1-219); test: FACS on CHO-K1-Mouse CLDN6 cells
T3 construct: whole, on cells; also called CHO-K1-Mouse CLDN6
T3 sequence (looked up): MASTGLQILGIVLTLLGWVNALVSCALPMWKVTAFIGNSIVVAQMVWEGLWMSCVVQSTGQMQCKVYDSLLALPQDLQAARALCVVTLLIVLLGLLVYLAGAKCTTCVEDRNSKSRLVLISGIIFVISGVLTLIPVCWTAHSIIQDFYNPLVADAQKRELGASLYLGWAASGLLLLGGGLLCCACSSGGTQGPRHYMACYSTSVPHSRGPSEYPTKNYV

human CLDN6 [5] = molecular target: T1, human CLDN6; test: FACS on PA-1 tumour cells; target on the cells taken as CLDN6
Procedure: (§3) The specific binding of a chimeric antibody to a tumor cell was detected by FACS, and an EC50 value was calculated accordingly to evaluate an inhibitory effect of the chimeric antibody on the tumor cell.
(§4) 50 μL of an antibody to be tested was added to a 96-well plate, then 1×10⁵ cells were added to each well, and incubation was conducted at 4° C. for 1 h. Cells were washed three times with PBS. […] Finally, cells were washed three times with PBS, and signals were read using FACS. A binding capacity of the antibody to each tumor cell was analyzed based on detection data.

human CLDN6 [6] = molecular target: T1, human CLDN6; test: FACS on HepG2 tumour cells; target on the cells taken as CLDN6
Procedure: as §3, §4

human CLDN9 [7] = molecular target: T4, human CLDN9 (human, UniProt O95484 1-217); test: FACS on 293T-CLDN9 cells
T4 construct: whole, on cells; also called HEK293T-CLDN9
T4 sequence (looked up): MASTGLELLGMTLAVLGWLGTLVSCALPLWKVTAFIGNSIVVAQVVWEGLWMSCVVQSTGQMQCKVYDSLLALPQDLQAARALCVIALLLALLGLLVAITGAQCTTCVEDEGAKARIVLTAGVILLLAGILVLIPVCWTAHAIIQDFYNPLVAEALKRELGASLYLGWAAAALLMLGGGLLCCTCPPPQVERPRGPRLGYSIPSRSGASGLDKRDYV

mouse CLDN6 [8] = molecular target: T3, mouse CLDN6; test: FACS on CHO-K1-Mouse CLDN6 cells (FIG. 15)
human CLDN6 [9] = molecular target: T1, human CLDN6; test: FACS on 293T-CLDN6 cells, 10 µg/mL
human CLDN9 [10] = molecular target: T4, human CLDN9; test: FACS on 293T-CLDN9 cells, 10 µg/mL
Procedure: as §4, with “1× 10⁵” for “1×10⁵”, “Binding capacities” for “A binding capacity”, “CLDN9, CLDN3, and CLDN4 were” for “each tumor cell was”, “analyzed separately” for “analyzed”

human CLDN6 [11] = molecular target: T1, human CLDN6; test: FACS on 293T-CLDN6 cells, 10 µg/mL; remark: listed apart in the source
human CLDN9 [12] = molecular target: T4, human CLDN9; test: FACS on 293T-CLDN9 cells, 10 µg/mL; remark: listed apart in the source
Procedure: as §4, with “1× 10⁵” for “1×10⁵”, “Binding capacities” for “A binding capacity”, “CLDN9, CLDN3, and CLDN4 were” for “each tumor cell was”, “analyzed separately” for “analyzed”

human CLDN6 [13] = molecular target: T1, human CLDN6; test: cell-based or functional assay
human CLDN6 [14] = molecular target: T1, human CLDN6; test: cell-based or functional assay; remark: listed apart in the source
human CLDN6 [15] = molecular target: T1, human CLDN6; test: FACS on HEK293T-CLDN6 cells; remark: listed apart in the source
Procedure: as §1, §2

human CLDN3 = molecular target: T5, human CLDN3 (human, UniProt O15551 1-220); test: FACS on 293T-CLDN3 cells, 10 µg/mL
T5 construct: whole, on cells; also called HEK293T-CLDN3
T5 sequence (looked up): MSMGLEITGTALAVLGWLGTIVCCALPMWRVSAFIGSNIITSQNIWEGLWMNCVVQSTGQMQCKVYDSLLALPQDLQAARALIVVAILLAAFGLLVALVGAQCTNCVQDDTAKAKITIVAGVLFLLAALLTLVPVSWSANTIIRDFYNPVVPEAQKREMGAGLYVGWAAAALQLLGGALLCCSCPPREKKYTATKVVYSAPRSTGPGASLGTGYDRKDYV
Procedure: as §4, with “1× 10⁵” for “1×10⁵”, “Binding capacities” for “A binding capacity”, “CLDN9, CLDN3, and CLDN4 were” for “each tumor cell was”, “analyzed separately” for “analyzed”

human CLDN4 = molecular target: T6, human CLDN4 (human, UniProt O14493 1-209); test: FACS on 293T-CLDN4 cells, 10 µg/mL
T6 construct: whole, on cells; also called HEK293T-CLDN4
T6 sequence (looked up): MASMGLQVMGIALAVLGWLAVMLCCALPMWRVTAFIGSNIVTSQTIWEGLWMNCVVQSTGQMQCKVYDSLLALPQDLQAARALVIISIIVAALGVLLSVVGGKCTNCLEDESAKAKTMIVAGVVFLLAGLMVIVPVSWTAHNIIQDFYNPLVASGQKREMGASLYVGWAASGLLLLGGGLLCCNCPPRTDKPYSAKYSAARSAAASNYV
Procedure: as §4, with “1× 10⁵” for “1×10⁵”, “Binding capacities” for “A binding capacity”, “CLDN9, CLDN3, and CLDN4 were” for “each tumor cell was”, “analyzed separately” for “analyzed”

human CLDN6 [16] = molecular target: T1, human CLDN6; test: FACS on 293T-CLDN6 cells, 10 µg/mL; remark: listed apart in the source
human CLDN9 [17] = molecular target: T4, human CLDN9; test: FACS on 293T-CLDN9 cells, 10 µg/mL; remark: listed apart in the source
Procedure: as §4, with “1× 10⁵” for “1×10⁵”, “Binding capacities” for “A binding capacity”, “CLDN9, CLDN3, and CLDN4 were” for “each tumor cell was”, “analyzed separately” for “analyzed”

human CLDN6 [18] = molecular target: T1, human CLDN6; test: ratio of FACS signals on CLDN6 cells over CLDN9 cells
Procedure: as §4, with “1× 10⁵” for “1×10⁵”, “Binding capacities” for “A binding capacity”, “CLDN9, CLDN3, and CLDN4 were” for “each tumor cell was”, “analyzed separately” for “analyzed”

human CLDN6 [19] = molecular target: T1, human CLDN6; test: FACS on PA-1 tumour cells; target on the cells taken as CLDN6; remark: listed apart in the source
Procedure: as §4

human CLDN6 [20] = molecular target: T1, human CLDN6; test: FACS on HepG2 tumour cells; target on the cells taken as CLDN6; remark: listed apart in the source
Procedure: as §4

human CLDN6 [21] = molecular target: T1, human CLDN6; test: as above; remark: listed apart in the source
Procedure: as §4

human CLDN6 [22] = molecular target: T1, human CLDN6; test: ratio of FACS Geom.Mean on 293T-CLDN6 over 293T-CLDN9, 10 µg/mL
Procedure: as §4, with “1× 10⁵” for “1×10⁵”, “Binding capacities” for “A binding capacity”, “CLDN9, CLDN3, and CLDN4 were” for “each tumor cell was”, “analyzed separately” for “analyzed”

human CLDN6 [23] = molecular target: T1, human CLDN6; test: FACS on HEK293T-CLDN6 cells; remark: listed apart in the source
Procedure: as §1, §2

- Geom.Mean (human CLDN6 [11]): 41400
- Geom.Mean (human CLDN9 [12]): 1170
B5: 51C10-M1 (antibody, human IgG1, kappa, V domains shown)
VH: EVQLQQSGPELVKPGASVKMSCKASGYTFTDYNMHWVKKSHGKSLEWIGYVNPNNAATSYNQKFKGKATLTVNKSSSTAYMELRSLTSEDSAVYNCARWDGYVYYYGLDYWGQGTSVTVSS
VL: DIQMTQSSSYLSVSLGGRVTITCKASDHINNWLAWYQQKPGNAPRLLISGATSLETGVPSRFSGSGSGKDYTLSITSLQTEDVATYYCQQYWSTPYTFGGGTKLEIKR
notes: 51C10H4 with G of NG in heavy-chain CDR2 changed to A; also called improved antibody 51C10-M1

- ADCC dose-response fit: EC50 (human CLDN6 [13]): 0.0413 µg/mL
- ADCC dose-response fit: LogEC50 (human CLDN6 [13]): -1.39
- CDC dose-response fit: EC50 (human CLDN6 [14]): 0.252 µg/mL
- CDC dose-response fit: LogEC50 (human CLDN6 [14]): -0.6
- EC50 (human CLDN6 [2]): 0.352 µg/mL
- EC50 (human CLDN6 [15]): 0.285 µg/mL
- EC50 [3]: 0.78 µg/mL
- EC50 (mouse CLDN6 [4]): 1.5 µg/mL
- Geom.Mean (human CLDN3): 101
- Geom.Mean (human CLDN4): 104
- Geom.Mean (human CLDN6 [16]): 37500
- Geom.Mean (human CLDN9 [17]): 141
- CLDN6/CLDN9 signal ratio (human CLDN6 [18]): ~200 fold
- EC50 (human CLDN6 [5]): 0.64 µg/mL
- EC50 (human CLDN6 [19]): 0.415 µg/mL
- EC50 (human CLDN6 [6]): 0.449 µg/mL
- EC50 (human CLDN6 [20]): 0.47 µg/mL
- EC50 (human CLDN6 [21]): 0.552 µg/mL
- CLDN6/CLDN9 ratio (human CLDN6 [22]): 265
B6: 54B5A7 (antibody, human IgG1, kappa, V domains shown)
VH: B5 VH with V51I, A56G, S59N, L108M
VL: B5 VL with S93N
notes: chimeric IgG1

- EC50 (human CLDN6 [23]): 0.73 µg/mL
- Geom.Mean (human CLDN6 [11]): 41800
- Geom.Mean (human CLDN9 [12]): 1740
B7: RecA101 (antibody, human IgG1, kappa, V domains shown)
VH: B5 VH with A56G
VL: B5 VL with S93N
notes: heavy chain of 51C10H4 with light chain of 54B5A7; IgG1; also called improved chimeric monoclonal antibody RecA101; recombined chimeric monoclonal antibody RecA101

Further lines, the binder ahead of its results:

B1: 47A5B10 (antibody, human IgG1, kappa, V domains shown)
VH: QGQLQQSGAELARPGASVKLSCKASGYTFTSYGISWVKQRTGQGLEWIGEIYPRSGNTYHNEKFKGKATLTADKSSSTAYMELRSLTSEDSAVYFCARSSYDYYAMDYWGQGTSVTVSS
VL: EIVVTQSPALMAASPGEKVTITCSVSSIISSSKLHWYQQKSETSPKPWIYGTSNLASGVPIRFSGSGSGTSYSLTISSMEAEDAATYYCQQWSSYPLTFGAGTKLELKR
notes: chimeric: murine variable regions on human IgG1 constant regions
- FACS signal (human CLDN6 [1]): 33000
- EC50 (human CLDN6 [2]): 0.674 µg/mL
- EC50 [3]: 0.343 µg/mL
- EC50 (mouse CLDN6 [4]): 0.633 µg/mL
- EC50 (human CLDN6 [5]): 0.737 µg/mL
- EC50 (human CLDN6 [6]): 1.38 µg/mL

B2: 20A3-2A7 (antibody, human IgG1, kappa, V domains shown)
VH: QAYLQQSGAELVRSGASVKMSCKASGYTFTSYNMHWVKQTPGQGLEWIGYIYPGNGGTNYNQKFKGKATLTADTSSSTAYMQISSLTSEDSAVYFCARWKYYDKTTHYALDYWGQGTLVTVSS
VL: DIVLTQSPASLAVSLGQWATISCRASKSVSTSGYSYIHWHQQKPGQPPKLLIYLASNLESGVPARFSGSGSGTDFTLNIHPVEEEDAATYYCHHSRELPFTFGSGTKLEIKR
notes: as for B1
- binding result (human CLDN9 [7]): binds
- binding result (mouse CLDN6 [8]): binds

B3: 20A3-M1 (antibody, human IgG1, kappa, V domains shown)
VH: B2 VH with G56A
VL: B2 VL
notes: 20A3-2A7 with G of NG in heavy-chain CDR2 changed to A; also called improved antibody 20A3-M1
- Geom.Mean (human CLDN6 [9]): 40200
- Geom.Mean (human CLDN9 [10]): 243

B4: 20A3-M2 (antibody, human IgG1, kappa, V domains shown)
VH: B2 VH with G56Q
VL: B2 VL
notes: 20A3-2A7 with G of NG in heavy-chain CDR2 changed to Q; also called improved antibody 20A3-M2
- Geom.Mean (human CLDN6 [9]): 34000
- Geom.Mean (human CLDN9 [10]): 297
